Assay results published in the supplement of paper PMC6757056.
± gives the standard deviation of the averaged measurements.

B1: library; a variant is named by its letters at N, in order (parent)
chain: GCUGUCACCGAGAAACUGUGAAGUAUAUCUUAAACCUGGGCACUUAAAAGAUAUAUGGAGUUAGUAGUGCAACCUGCUCGGUCUGAUGAGUCCNNNNNNGGACGAAACAGC

Tests used:
cyclic di-GMP [1] = variants of: B1; assay: FACS-Seq fitted mean relative fluorescence mCherry/BFP without ligand (log10 relative fluorescence); HEK293T; ligand: cyclic di-GMP (c-di-GMP-II aptamer); higher = higher reporter protein expression; details: ligand present: no
Method in brief: (§1)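 Enriched HEK293T cells carrying, by lentivirus, an mCherry reporter with the ribozyme switch and an EF1α-BFP marker spent 48 h with or without ligand and were sorted into 6 bins by mCherry/BFP. MiSeq sequencing of PCR-amplified bin genomic DNA gave bin counts. Fluorescence was calculated as the fitted normal mean of those counts. Counts were binned on log10(mCherry/BFP), and means were scaled to five spiked-in control ribozymes.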

cyclic di-GMP [2] = variants of: B1; assay: normalized RNA/DNA level without ligand (relative to sTRSVctl = 100) (log10 (% of sTRSVctl)); HEK293T; ligand: cyclic di-GMP (c-di-GMP-II aptamer); higher = less ribozyme self-cleavage, higher mRNA level; details: reporter: mCherry (pCS4076), ligand present: no
Procedure: (§2)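 Hammerhead (sTRSV) ribozyme switch libraries with a ligand aptamer grafted on stem I and a randomized N4-6 loop II, cloned into the 3' UTR of mCherry and transiently transfected into HEK293T cells; RNA-Seq 72 h post transfection with ligand added 1 h before transfection; RNA read count / plasmid DNA read count normalized to the non-cleaving sTRSVctl (x100), log10; sequences with >100 DNA reads. FACS-Seq: lentiviral library sorted into 6 bins after 48 h ligand, log-normal fit mean of mCherry/BFP scaled to controls. Printed sequences are partial switch sequences.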

cyclic di-GMP [3] = variants of: B1; assay: FACS-Seq fitted mean relative fluorescence mCherry/BFP with ligand (log10 relative fluorescence); HEK293T; ligand: cyclic di-GMP (c-di-GMP-II aptamer); ligand concentration (+) FACS-Seq: 1 mM; higher = higher reporter protein expression; details: ligand present: yes
Method in brief: as §1

cyclic di-GMP [4] = variants of: B1; assay: normalized RNA/DNA level with ligand (relative to sTRSVctl = 100) (log10 (% of sTRSVctl)); HEK293T; ligand: cyclic di-GMP (c-di-GMP-II aptamer); ligand concentration (+) RNA-Seq: 1 mM; higher = less ribozyme self-cleavage, higher mRNA level; details: reporter: mCherry (pCS4076), ligand present: yes
Procedure: as §2

Row | Variant | FACS-Seq fitted mean (log10) (cyclic di-GMP [1]) | normalized RNA/DNA level without ligand (log10) (cyclic di-GMP [2]) | FACS-Seq fitted mean (log10) (cyclic di-GMP [3]) | normalized RNA/DNA level with ligand (log10) (cyclic di-GMP [4])
1 | UAUACU | 0.0993 ± 0.048 | 1.722 ± 0.013 | 0.304 ± 0.012 | 1.85 ± 0.066
2 | GCACAA | -0.339 ± 0.051 | 1.41 ± 0.051 | 0.0543 ± 0.037 | 1.62 ± 0.11
3 | GCACAC | -0.421 ± 0.06 | 1.55 ± 0.034 | 0.00625 ± 0.1 | 1.69 ± 0.13
4 | UAUUAC | -0.992 ± 0.17 | 1.77 ± 0.039 | -0.849 ± 0.071 | 1.87 ± 0.095
5 | UAUUAA | -0.387 ± 0.054 | 1.7 ± 0.039 | -0.126 ± 0.13 | 1.87 ± 0.12
6 | GAGUAA | -0.0125 ± 0.15 | 1.71 ± 0.027 | 0.165 ± 0.029 | 1.81 ± 0.069
7 | GAGUAG | -0.7206 ± 0.0025 | 1.84 ± 0.075 | -0.563 ± 0.061 | 1.89 ± 0.12
8 | UAUGUA | -0.622 ± 0.023 | 1.668 ± 0.0069 | -0.405 ± 0.035 | 1.84 ± 0.08
9 | ACAAGA | -0.604 ± 0.026 | 1.26 ± 0.14 | -0.428 ± 0.022 | 1.46 ± 0.023
10 | ACAAGC | -0.263 ± 0.13 | 1.44 ± 0.045 | -0.052 ± 0.14 | 1.7 ± 0.12
11 | ACAAGU | -0.519 ± 0.012 | 1.42 ± 0.039 | -0.19187 ± 0.00017 | 1.63 ± 0.13
12 | GAGAGA | -0.796 ± 0.023 | 1.61 ± 0.037 | -0.733 ± 0.053 | 1.72 ± 0.086
13 | CAUCGA | -0.063 ± 0.043 | 1.64 ± 0.057 | 0.144 ± 0.0063 | 1.78 ± 0.07
14 | UAGAUG | 0.0515 ± 0.09 | 1.53 ± 0.057 | 0.322 ± 0.085 | 1.75 ± 0.089
15 | UCAAAA | -0.275 ± 0.04 | 1.46 ± 0.037 | -0.0447 ± 0.01 | 1.68 ± 0.15
16 | GAUUGA | 0.00942 ± 0.089 | 1.5 ± 0.084 | 0.252 ± 0.042 | 1.7 ± 0.072
17 | GAUUGG | -0.22 ± 0.02 | 1.63 ± 0.02 | 0.0818 ± 0.059 | 1.75 ± 0.093
18 | GAUCGA | -0.635 ± 0.0097 | 1.64 ± 0.033 | -0.425 ± 0.16 | 1.78 ± 0.094

Row | Variant | FACS-Seq fitted mean (log10) (cyclic di-GMP [1]) | normalized RNA/DNA level without ligand (log10) (cyclic di-GMP [2]) | FACS-Seq fitted mean (log10) (cyclic di-GMP [3]) | normalized RNA/DNA level with ligand (log10) (cyclic di-GMP [4])
19 | CAUAGU | -0.641 ± 0.058 | 1.72 ± 0.025 | -0.575 ± 0.046 | 1.85 ± 0.066
20 | CAUAUA | -0.483 ± 0.05 | 1.3 ± 0.14 | -0.237 ± 0.014 | 1.51 ± 0.097
21 | CAUAAA | -0.673 ± 0.064 | 1.23 ± 0.14 | -0.363 ± 0.021 | 1.42 ± 0.066
22 | CAUAAU | -0.282 ± 0.056 | 1.46 ± 0.092 | -0.0129 ± 0.014 | 1.63 ± 0.072
23 | GAGCCU | -0.783 ± 0.038 | 1.79 ± 0.072 | -0.638 ± 0.064 | 1.89 ± 0.12
24 | UAGUGG | -0.133 ± 0.082 | 1.71 ± 0.064 | 0.162 ± 0.086 | 1.84 ± 0.069
25 | UAGUGA | -0.51 ± 0.069 | 1.626 ± 0.0075 | -0.218 ± 0.016 | 1.77 ± 0.15
26 | UAUCAC | 0.171 ± 0.13 | 1.75 ± 0.0055 | 0.375 ± 0.051 | 1.87 ± 0.11
27 | UAGACU | -0.164 ± 0.073 | 1.68 ± 0.051 | 0.141 ± 0.12 | 1.85 ± 0.13
28 | CAUGAA | -0.704 ± 0.022 | 1.28 ± 0.092 | -0.4855 ± 0.00097 | 1.43 ± 0.12
29 | CAUGAC | -0.0513 ± 0.12 | 1.63 ± 0.033 | 0.217 ± 0.061 | 1.79 ± 0.13
30 | GAUACA | -0.276 ± 0.023 | 1.65 ± 0.032 | -0.124 ± 0.088 | 1.8 ± 0.11
31 | AAUUGG | 0.0192 ± 0.091 | 1.59 ± 0.068 | 0.141 ± 0.0084 | 1.74 ± 0.13
32 | CAUUAU | -0.4943 ± 0.0018 | 1.54 ± 0.098 | -0.353 ± 0.08 | 1.71 ± 0.1
33 | CAUUAA | -0.604 ± 0.025 | 1.26 ± 0.11 | -0.31552 ± 2.8e-05 | 1.46 ± 0.12
34 | GCAAAU | -0.773 ± 0.072 | 1.39 ± 0.071 | -0.484 ± 0.094 | 1.61 ± 0.12
35 | GCAAAG | -0.5587 ± 0.0035 | 1.41 ± 0.099 | -0.278 ± 0.024 | 1.62 ± 0.087
36 | GCAAAC | -0.826 ± 0.056 | 1.39 ± 0.064 | -0.0625 ± 0.35 | 1.57 ± 0.085
